Source: patent US20160194394A1 (GOVERNING COUNCIL OF THE UNIVERSITY OF TORONTO, published 2016)
Like-named read-outs stand apart in the source and are kept apart here.

T1: human Fzd5-Fc
T1 construct: also called FZD5 ECD; Fzd5 CRD-Fc fusion protein (R&D systems); not shown: exact vendor limits of the CRD construct
T1 chain: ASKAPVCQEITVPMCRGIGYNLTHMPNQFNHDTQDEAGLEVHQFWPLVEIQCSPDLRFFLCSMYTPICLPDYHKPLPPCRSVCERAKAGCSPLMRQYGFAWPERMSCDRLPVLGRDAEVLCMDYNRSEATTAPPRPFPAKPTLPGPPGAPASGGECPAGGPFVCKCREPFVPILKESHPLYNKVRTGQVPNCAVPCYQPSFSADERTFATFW

T2: human Fzd8-Fc
T2 construct: also called FZD8 ECD; Fzd8 CRD-Fc fusion protein (R&D systems); not shown: exact vendor limits of the CRD construct
T2 chain: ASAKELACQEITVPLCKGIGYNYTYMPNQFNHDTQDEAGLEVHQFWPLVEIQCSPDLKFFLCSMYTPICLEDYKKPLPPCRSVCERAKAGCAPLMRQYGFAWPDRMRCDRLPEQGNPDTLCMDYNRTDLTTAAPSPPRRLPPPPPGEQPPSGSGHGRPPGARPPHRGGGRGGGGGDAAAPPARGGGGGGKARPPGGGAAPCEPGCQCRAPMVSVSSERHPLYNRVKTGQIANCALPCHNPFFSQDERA

T3: FZD4 ECD
T3 construct: also called Fzd4 CRD-Fc fusion protein (R&D systems); not shown: exact vendor limits of the CRD construct
T3 chain: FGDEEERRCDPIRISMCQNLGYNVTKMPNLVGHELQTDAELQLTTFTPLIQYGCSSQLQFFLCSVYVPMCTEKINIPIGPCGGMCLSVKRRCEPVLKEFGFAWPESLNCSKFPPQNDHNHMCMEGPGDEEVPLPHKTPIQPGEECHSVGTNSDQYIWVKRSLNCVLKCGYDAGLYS

B1: Fab H10 (Fab)
chain 1: EVQLVESGGGLVQPGGSLRLSCAASGFNIYYYSMHWVRQAPGKGLEWVASIYSSYSYTSYADSVKGRFTISADTSKNTAYLQMNSLRAEDTAVYYCARSSPGADYGLDYWGQGTLVTVSSASTKGPSVFPLAPSSKSTSGGTAALGCLVKDYFPEPVTVSWNSGALTSGVHTFPAVLQSSGLYSLSSVVTVPSSSLGTQTYICNVNHKPSNTKVDKKVEPKSC
chain 2: DIQMTQSPSSLSASVGDRVTITCRASQSVSSAVAWYQQKPGKAPKLLIYSASSLYSGVPSRFSGSRSGTDFTLTISSLQPEDFATYYCQQWAYGPFTFGQGTKVEIKRTVAAPSVFIFPPSDSQLKSGTASVVCLLNNFYPREAKVQWKVDNALQSGNSQESVTEQDSKDSTYSLSSTLTLSKADYEKHKVYACEVTHQGLSSPVTKSFNRGECGGS
B2: Fab A1 (Fab)
chain 1: EVQLVESGGGLVQPGGSLRLSCAASGFNISSYYIHWVRQAPGKGLEWVASIYPYYSSTYYADSVKGRFTISADTSKNTAYLQMNSLRAEDTAVYYCARVWYGAMDYWGQGTLVTVSSASTKGPSVFPLAPSSKSTSGGTAALGCLVKDYFPEPVTVSWNSGALTSGVHTFPAVLQSSGLYSLSSVVTVPSSSLGTQTYICNVNHKPSNTKVDKKVEPKSC
chain 2: DIQMTQSPSSLSASVGDRVTITCRASQSVSSAVAWYQQKPGKAPKLLIYSASSLYSGVPSRFSGSRSGTDFTLTISSLQPEDFATYYCQQYYHPITFGQGTKVEIKRTVAAPSVFIFPPSDSQLKSGTASVVCLLNNFYPREAKVQWKVDNALQSGNSQESVTEQDSKDSTYSLSSTLTLSKADYEKHKVYACEVTHQGLSSPVTKSFNRGECGGS

What was measured:
[1] = target: T4, recombinant Frizzled receptor 7 (FZD7) cysteine-rich domain (CRD) fused to the Fc region of human IgG (human, UniProt O75084 33-185); test: competitive ELISA, detected phage-Fab H1
[2] = target: T4, recombinant Frizzled receptor 7 (FZD7) …; test: competitive ELISA, detected phage-Fab G6
[3] = target: T4, recombinant Frizzled receptor 7 (FZD7) …; test: competitive ELISA, detected phage-Fab E8
[4] = target: T4, recombinant Frizzled receptor 7 (FZD7) …; test: competitive ELISA, detected phage-Fab D10
[5] = target: T4, recombinant Frizzled receptor 7 (FZD7) …; test: competitive ELISA, detected phage-Fab H3
[6] = target: T4, recombinant Frizzled receptor 7 (FZD7) …; test: competitive ELISA, detected phage-Fab A1
[7] = target: T4, recombinant Frizzled receptor 7 (FZD7) …; test: competitive ELISA, detected phage-Fab E4
[8] = target: T4, recombinant Frizzled receptor 7 (FZD7) …; test: SPR
[9] = target: T4, recombinant Frizzled receptor 7 (FZD7) …; test: ELISA, 1ug/ml (20nM) Fab
How it was run: (§1)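 Plates coated with 2 ug/ml FZD7-Fc or Fc protein were probed with bacterially expressed purified Fabs for 1 h at room temperature in 0.5% BSA/0.05% Tween20/PBS. Bound Fab detected with anti-FLAG-HRP for 45 min, developed with TMB and acid stop, and read as absorbance at 450 nm; n.t. = not tested.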

[10] = target: T5, FZD7 receptor expressed on cells (full-length) (UniProt O75084 33-574, limits assumed); test: flow cytometry, 200 nM Fab, MDA MB 231
T5 construct: whole, on cells; MDA MB 231 cells may carry other Frizzled receptors too; also called full-length FZD7 receptor; endogenous receptor on MDA MB 231 cells
How it was run: (§2)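 EDTA-harvested MDA MB 231 cells, either FZD7-overexpressing or with endogenous receptor, were blocked in 2% FBS/PBS and stained with Fab for 30 min on ice. Detection used anti-F(ab′)₂-APC (1:1000, 15 min on ice), then 1% paraformaldehyde fixation and flow cytometry. Values are percent of cells in positive gates.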

[11] = target: T4, recombinant Frizzled receptor 7 (FZD7) …; test: competitive ELISA, detected phage-Fab G2
[12] = target: T5, FZD7 receptor expressed on cells …; test: flow cytometry, 200 nM Fab, FZD7 over-expression line (MDA MB 231)
How it was run: as §2

[13] = target: T5, FZD7 receptor expressed on cells …; test: cell-based or functional assay
mouse Fzd2-Fc = target: T6, mouse Fzd2-Fc; test: SPR
T6 construct: also called mFZD2 ECD; Fzd2 CRD-Fc fusion protein (R&D systems); not shown: exact vendor limits of the CRD construct
T6 sequence (chain, as listed by the source limits assumed): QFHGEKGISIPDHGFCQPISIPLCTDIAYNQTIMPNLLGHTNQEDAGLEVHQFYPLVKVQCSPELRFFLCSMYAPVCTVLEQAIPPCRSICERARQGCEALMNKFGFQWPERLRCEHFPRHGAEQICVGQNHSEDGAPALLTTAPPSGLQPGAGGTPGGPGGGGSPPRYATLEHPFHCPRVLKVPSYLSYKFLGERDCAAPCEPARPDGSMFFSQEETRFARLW

[14] = target: T4, recombinant Frizzled receptor 7 (FZD7) …; test: SPR; remark: listed apart in the source
human Fzd1-Fc = target: T7, human Fzd1-Fc; test: SPR
T7 construct: also called FZD1 ECD; Fzd1 CRD-Fc fusion protein (R&D systems); not shown: exact vendor limits of the CRD construct
T7 sequence (chain, as listed by the source limits assumed): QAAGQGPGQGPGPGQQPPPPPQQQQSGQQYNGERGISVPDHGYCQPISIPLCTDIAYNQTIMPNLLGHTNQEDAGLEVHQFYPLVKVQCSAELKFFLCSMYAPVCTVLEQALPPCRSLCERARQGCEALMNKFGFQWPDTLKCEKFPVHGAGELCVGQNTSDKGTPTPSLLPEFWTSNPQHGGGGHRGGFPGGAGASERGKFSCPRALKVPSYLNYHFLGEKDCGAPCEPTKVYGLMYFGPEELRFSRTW

human Fzd5-Fc = target: T1, human Fzd5-Fc; test: SPR
human Fzd8-Fc = target: T2, human Fzd8-Fc; test: SPR
[15] = target: T4, recombinant Frizzled receptor 7 (FZD7) …; test: competitive ELISA, detected phage-Fab H10
[16] = target: T4, recombinant Frizzled receptor 7 (FZD7) …; test: ELISA, 10ug/ml (200nM) Fab
How it was run: as §1

[17] = target: T4, recombinant Frizzled receptor 7 (FZD7) …; test: ELISA, 1ug/ml (20nM) Fab [cont'd]
How it was run: as §1

[18] = target: T5, FZD7 receptor expressed on cells …; test: flow cytometry, 200 nM Fab, FZD7 over-expression line (MDA MB 231) [cont'd]
How it was run: as §2

[19] = target: T5, FZD7 receptor expressed on cells …; test: flow cytometry, 200 nM Fab, MDA MB 231 [cont'd]
How it was run: as §2

[20] = target: T4, recombinant Frizzled receptor 7 (FZD7) …; test: ELISA, 10ug/ml (200nM) Fab [cont'd]
How it was run: as §1

FZD4 ECD = target: T3, FZD4 ECD; test: SPR

| Binder | % of Fab phage in presence of 750 nM Fab [1] [%] | % of Fab phage in presence of 750 nM Fab [2] [%] | % of Fab phage in presence of 750 nM Fab [3] [%] | % of Fab phage in presence of 750 nM Fab [4] [%] | % of Fab phage in presence of 750 nM Fab [5] [%] | % of Fab phage in presence of 750 nM Fab [6] [%] | % of Fab phage in presence of 750 nM Fab [7] [%] | Kd [8] [nM] | koff [8] [s⁻¹] | kon [8] [M⁻¹ s⁻¹] | % of Fab phage in presence of 750 nM Fab [11] [%] | decrease in Wnt 3a-induced transcriptional activity (TOP-FLASH luciferase reporter in MDA MB 231 cells, 400 nM Fab) [13] [%] | Kd (mouse Fzd2-Fc) [nM] | Kd [14] [nM] | Kd (human Fzd1-Fc) [nM] | Kd (human Fzd5-Fc) [nM] | Kd (human Fzd8-Fc) [nM] | % of Fab phage in presence of 750 nM Fab [15] [%] | other results |
| --- | --- | --- | --- | --- | --- | --- | --- | --- | --- | --- | --- | --- | --- | --- | --- | --- | --- | --- | --- |
| B1 | 53.5 | 29.1 | 7.1 | 6.8 | 27.7 | 21.8 | 20.9 | 1.03 | 0.000548 | 533000 | 7.4 | > 70 | 0.95 | 1.03 | 3.67 | 3.06 | 2.5 | 7.4 | OD 450 [9]: 3.19; % population within the positive gate [10]: 99%; % population within the positive gate [12]: 93.2%; OD 450 [16]: 3.22 |
| B2 | 13.7 | 8.2 | 6.5 | 5 | 15.1 | 4.2 | 7.3 | 2.09 | 0.000994 | 476000 | 4.7 | > 70 | 1.75 | 2.09 | 1.07 | 15.8 | 9.31 | 5.2 | OD 450 [17]: 3.22; % population within the positive gate [18]: 93.1%; % population within the positive gate [19]: 98.6%; OD 450 [20]: 3.23; Kd (FZD4 ECD): 13.3 nM |
